Data taken from PMC535902.

Columns and labels:
[1] = target: Rhodobacter capsulatus porphobilinogen synthase (Rhodobacter capsulatus) (UniProt P42504)
[2] = target: Rhodobacter capsulatus porphobilinogen synthase (Rhodobacter capsulatus) (UniProt P42504); assay: SEC; Superose 6 (10 x 300 mm), 0.5 ml/min, 100 mM BTP pH 8.6, 100 uL of a 200 ug/ml solution; column calibrated with standards
[3] = target: Rhodobacter capsulatus porphobilinogen synthase (Rhodobacter capsulatus) (UniProt P42504); assay: AUC; sedimentation equilibrium, 4 °C, 10 mM Tris-HCl pH 7.7 with 0.1 mM DTT or 1 mM βME, 12.3 uM in monomer (440 ug/ml), 8,000-14,000 rpm, global fit to a single species model

specific activity of the enzyme against protein concentration (0.01 to 40 ug/ml; from ~150 at the lowest to ~450 umol h^-1 mg^-1 at the highest) (μmol h^-1 mg^-1) [1]: 450
stoichiometry N [2]: 6
stoichiometry N [3]: 6
Substance: Rhodobacter capsulatus porphobilinogen synthase (from UniProt P42504 1-332) (enzyme)
